Reference: patent US20230272056A1 (Merck Sharp & Dohme, published 2023)

Assays:
[1] = target: human LAP-TGFβ1 expressed on P3U1 cells (human, UniProt P01137 30-390); assay: cell-based or functional assay
[2] = target: T1, human LAP-TGFβ1 (construct not stated) (human, UniProt P01137 30-390); assay: KinExA, mAb as constant binding partner
T1 construct: also called human LAP-TGFβ isoform 1; titrant
Procedure: An orthogonal kinetic exclusion assay (KinExA) method was used in this study to measure the affinities of affinity-matured anti-LAP-TGFβ1 antibodies (referred to as the constant binding partner, CBP) and human LAP-TGFβ1 (referred to as the titrant). To determine the free CBP concentration in solution, biotinylated human LAP-TGFβ1 coated PMMA (Sapidyne, catalog 440176) beads were prepared by first coating with biotin-BSA (ThermoScientific, catalog 29130) followed by streptavidin (Invitrogen, catalog S888), and a final coat with biotinylated human LAP-TGFβ1-Fc.
For association rate analysis, an experimentally optimized constant concentration of CBP and titrant, were mixed 1:1 and free CBP was measured at timed intervals ranging from 15 to 10000 seconds. […] The data were analyzed with KinExA Pro software (version 4.4.26) where the free CBP binding signals were converted into percent free response, plotted against time (seconds) and processed with the n-curve software “Kinetics, Direct” analysis method.
For equilibrium affinity analysis, two experimentally optimized CBP concentrations were combined with 1:2 serially diluted titrant, human LAP-TGFβ1, and incubated at room temperature to achieve equilibrium. […] The data was analyzed with KinExA Pro software (version 4.4.26) where the free CBP binding signals were converted into percent free response and plotted against the titrant concentration series. The equilibrium KD was determined by processing with n-curve software “Equilibrium” analysis method.

[3] = target: T2, human LAP-TGFB1 Fc fusion (human); assay: SPR pH 7.4, antigen captured on Fab 54BLH
T2 construct: also called human LAP-TGFβ1-Fc; human LAP-TGFβ-Fc isoform 1
T2 sequence (chain, as listed by the source limits assumed): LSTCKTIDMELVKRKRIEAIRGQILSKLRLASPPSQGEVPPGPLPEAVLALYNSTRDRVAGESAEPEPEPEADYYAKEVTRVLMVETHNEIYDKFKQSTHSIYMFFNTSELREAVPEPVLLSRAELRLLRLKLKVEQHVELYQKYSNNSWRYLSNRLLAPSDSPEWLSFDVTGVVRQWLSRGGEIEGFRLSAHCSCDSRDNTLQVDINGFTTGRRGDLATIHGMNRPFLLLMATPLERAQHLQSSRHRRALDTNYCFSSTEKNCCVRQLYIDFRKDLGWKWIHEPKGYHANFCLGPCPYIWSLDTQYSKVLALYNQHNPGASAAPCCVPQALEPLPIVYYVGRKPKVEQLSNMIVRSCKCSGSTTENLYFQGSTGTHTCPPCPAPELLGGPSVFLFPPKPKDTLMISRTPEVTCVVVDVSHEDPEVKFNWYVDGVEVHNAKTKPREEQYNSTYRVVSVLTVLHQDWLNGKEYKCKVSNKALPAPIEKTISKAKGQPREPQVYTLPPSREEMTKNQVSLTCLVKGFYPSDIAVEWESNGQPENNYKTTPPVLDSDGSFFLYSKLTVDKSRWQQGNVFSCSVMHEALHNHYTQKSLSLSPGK
From the text: (§1) A Series S C1 sensor chip (Cytiva, catalog BR100535) was immobilized with low densities of high affinity Fab 54BLH on a Biacore T200 instrument with 1×HBS-EP+(Teknova, catalog H8022). This surface served as a monovalent capture surface for a low-density layer of heterodimer human LAP-TGFβ1 complex leaving the second binding site exposed for monovalent kinetic binding analysis with both mAbs and Fabs. Immobilized flow cell 1 served as the reference and flow cells 2, 3 and 4 were used to evaluate the binding interaction between human LAP-TGFβ1 and yeast display mutant mAbs and Fabs.
(§2) Approximately 15-25 RU of human LAP-TGFβ1-Fc was captured to the Fab capture surface followed by injection of 1:3 serially diluted Fabs and mAbs from 6 nM to 0.07 nM (Fabs: 54BLH, 55BLH, 60BLH, 63BLH, 64BLH-mAbs: 69BLH, 70BLH) and 1:3 serially diluted Fab and mAbs from 60 nM to 0.74 nM (Fabs: 59BLH, 66BLH, 67BLH—mAbs: 74BLH, 75BLH, 78BLH, 79BLH, 81BLH, 82BLH) including 0 nM. The binding data was double referenced by subtraction of signal from a reference flow cell and the 0 nM injections for evaluation of Fabs and mAbs respectively. Binding rate constants were calculated/determined by fitting the data with a 1:1 binding model (Cytiva Biacore T200 Evaluation software 3.0).

[4] = target: T2, human LAP-TGFB1 Fc fusion; assay: SPR pH 6.0, antigen captured on Fab 54BLH
From the text: as §1, §2

[5] = target: T3, human LAP-TGFB2 Fc fusion (human); assay: SPR
T3 construct: also called human LAP-TGFβ2; LAP-TGFβ isoform 2
T3 sequence (chain, as listed by the source limits assumed): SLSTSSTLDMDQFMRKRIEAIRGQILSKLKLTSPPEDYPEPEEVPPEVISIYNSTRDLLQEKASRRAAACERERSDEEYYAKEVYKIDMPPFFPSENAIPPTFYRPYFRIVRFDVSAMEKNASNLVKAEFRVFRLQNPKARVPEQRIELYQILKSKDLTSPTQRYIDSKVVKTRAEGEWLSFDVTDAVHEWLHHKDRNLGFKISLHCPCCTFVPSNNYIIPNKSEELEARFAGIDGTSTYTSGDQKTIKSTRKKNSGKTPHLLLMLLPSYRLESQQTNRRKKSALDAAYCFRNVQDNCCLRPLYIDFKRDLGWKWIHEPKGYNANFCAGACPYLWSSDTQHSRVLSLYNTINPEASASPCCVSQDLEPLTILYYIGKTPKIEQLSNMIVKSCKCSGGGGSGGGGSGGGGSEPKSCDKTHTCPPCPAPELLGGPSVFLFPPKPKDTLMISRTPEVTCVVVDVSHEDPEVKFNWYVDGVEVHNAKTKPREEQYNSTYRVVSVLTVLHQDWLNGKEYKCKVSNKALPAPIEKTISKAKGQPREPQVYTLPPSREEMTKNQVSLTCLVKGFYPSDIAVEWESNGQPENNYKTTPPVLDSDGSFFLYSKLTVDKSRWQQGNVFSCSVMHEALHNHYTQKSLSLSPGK
From the text: (§3) This Example describes the isoform specificity of the yeast display mutants to bind to human LAP-TGFβ isoforms 1, 2, and 3 using surface plasmon resonance. A Series S CM4 sensor chip (GE Healthcare, catalog BR100534) was immobilized with an anti-human Fc capture antibody following the kit protocol (GE Healthcare, catalog BR100839) on a Biacore T200 instrument with 1× HBS-EP+ (Teknova, catalog H8022). […] Binding specificity experiments between human LAP-TGFβ isoforms 2 and 3 and yeast display mutants were performed in 1× HBS-EP+ with 0.1 mg/mL BSA at 25° C. Approximately 20-40 RU amounts of human LAP-TGFβ2 and 3 were captured to the anti-human Fc surface followed by injection of 1000 nM Fab including a negative control 0 nM Fab. The binding data were double referenced by subtraction of signal from a reference (capture surface only) flow cell and the negative control 0 nM Fab injection. Binding rate constants were determined by fitting the data with a 1:1 binding model (GE Healthcare Biacore T200 Evaluation software 3.0).

[6] = target: T4, human LAP-TGFB3 Fc fusion (human); assay: SPR
T4 construct: also called human LAP-TGFβ3; LAP-TGFβ isoform 3
T4 sequence (chain, as listed by the source limits assumed): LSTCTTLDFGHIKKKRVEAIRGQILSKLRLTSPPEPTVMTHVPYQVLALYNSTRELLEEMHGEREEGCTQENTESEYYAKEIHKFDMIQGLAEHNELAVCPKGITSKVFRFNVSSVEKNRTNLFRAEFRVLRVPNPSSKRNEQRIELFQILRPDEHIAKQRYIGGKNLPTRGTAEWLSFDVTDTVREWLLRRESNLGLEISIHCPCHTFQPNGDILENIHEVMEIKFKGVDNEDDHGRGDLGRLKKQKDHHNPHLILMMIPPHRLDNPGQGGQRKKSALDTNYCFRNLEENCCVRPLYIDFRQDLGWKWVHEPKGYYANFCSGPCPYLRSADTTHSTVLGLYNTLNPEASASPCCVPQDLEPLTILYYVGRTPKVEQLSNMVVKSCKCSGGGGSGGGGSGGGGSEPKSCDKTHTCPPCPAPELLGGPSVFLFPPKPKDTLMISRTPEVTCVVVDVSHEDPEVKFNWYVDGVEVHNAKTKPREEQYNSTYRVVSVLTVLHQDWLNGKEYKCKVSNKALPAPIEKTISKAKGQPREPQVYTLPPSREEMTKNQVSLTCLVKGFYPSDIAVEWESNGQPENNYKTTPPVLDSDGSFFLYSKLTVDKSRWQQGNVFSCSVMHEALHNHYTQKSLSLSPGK
From the text: as §3

[7] = target: T2, human LAP-TGFB1 Fc fusion; assay: SPR, antigen-Fc captured, Fab analyte
From the text: as §3

T1 sequence (P01137 30-390 limits assumed): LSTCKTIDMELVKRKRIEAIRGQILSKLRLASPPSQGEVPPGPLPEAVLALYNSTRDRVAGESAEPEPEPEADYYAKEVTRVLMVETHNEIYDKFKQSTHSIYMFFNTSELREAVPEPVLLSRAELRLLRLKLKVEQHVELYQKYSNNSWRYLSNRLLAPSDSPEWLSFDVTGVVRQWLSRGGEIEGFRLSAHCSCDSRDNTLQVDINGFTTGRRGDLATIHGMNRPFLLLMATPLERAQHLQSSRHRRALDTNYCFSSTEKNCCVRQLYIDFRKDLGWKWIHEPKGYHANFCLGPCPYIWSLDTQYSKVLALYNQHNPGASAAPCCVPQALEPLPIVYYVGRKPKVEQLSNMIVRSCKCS
Chain of human LAP-TGFβ1 expressed on P3U1 cells (P01137 30-390): as the sequence (P01137 30-390 limits assumed) above

Row | Binder | Average EC50 [1] | ELISA assay 2 EC50 [1] | ELISA assay #1 EC50 [1] | Kd [2] | koff [2] | kon [2] | Fab/mAb KD Ratio [3] | Kd [3] | koff [3] | kon [3] | Fab/mAb KD Ratio [4] | Kd [4] | koff [4] | kon [4] | binding result [5] | binding result [6] | Fold improvement in KD [7] | Kd [7] | koff [7] | kon [7]
1 | 16BLM (antibody, human IgG1, kappa, L234A L235A, V domains shown, IgG1 L234A L235A D265S/kappa; also called 79BLH; 52BMD) VH: EVQLVQSGAEVKKPGASVKVSCKASGYTFTSYDMHWVRQAPGQGLEWMGRIDPQSGGIKYAQKFQGRATLTVDTSTSTAYMELSRLRSDDTAVYYCARWDYGGYFDVWGQGTLVTVSS VL: DIQMTQSPSSLSASVGDRVTITCRASQDIYNYLNWYQQKPGKAVKLLIYYTSVLETGVPSRFSGSGSGTDYTLTISSLQPEDFATYFCQQGDTLPWTFGQGTKLEIKR | 0.104 µg/mL | 0.126 µg/mL | 0.0816 µg/mL | 0.00275 nM | 1.38e-05 s⁻¹ | 5.03e+06 M⁻¹ s⁻¹ | 1.6 | 0.038 nM | 0.000552 s⁻¹ | 1.44e+07 M⁻¹ s⁻¹ | 1.6 | 0.11 nM | 0.00122 s⁻¹ | 1.12e+07 M⁻¹ s⁻¹ |  |  |  |  |  | 
2 | 18BLM (antibody, human IgG1, kappa, L234A L235A, V domains shown, IgG1 L234A L235A D265S/kappa; also called 81BLH; 54BMD) VH: EVQLVQSGAEVKKPGASVKVSCKASGYTFTSYDMHWVRQAPGQGLEWMGRIDPQSGGIKYAQKFQGRATLTVDTSTSTAYMELSRLRSDDTAVYYCARYDHGGYFDVWGQGTLVTVSS VL: DIQMTQSPSSLSASVGDRVTITCRASQDIYNYLNWYQQKPGKAVKLLIYYTSRLETGVPSRFSGSGSGTDYTLTISSLQPEDFATYFCQQGDTLPWTFGQGTKLEIKR | 0.052 µg/mL | 0.006 µg/mL | 0.0982 µg/mL | 0.0621 nM | 6.09e-06 s⁻¹ | 98300 M⁻¹ s⁻¹ | 3.3 | 0.959 nM | 0.00518 s⁻¹ | 5.4e+06 M⁻¹ s⁻¹ | 1.8 | 9.11 nM | 0.0489 s⁻¹ | 5.65e+06 M⁻¹ s⁻¹ |  |  |  |  |  | 
3 | 82BJN (Fab, V domains shown, also called VH W33Y H35N I58V D100H Y104Q / VL T30Y R53G (82BJN)) VH: EVQLVQSGAEVKKPGASVKVSCKASGYTFTSYYMNWVRQAPGQGLEWMGRIDPQSGGVKYAQKFQGRATLTVDTSTSTAYMELSRLRSDDTAVYYCARWHYGGQFDVWGQGTLVTVSS VL: DIQMTQSPSSLSASVGDRVTITCRASQDIYNYLNWYQQKPGKAVKLLIYYTSGLHSGVPSRFSGSGSGTDYTLTISSLQPEDFATYFCQQGDTLPWTFGQGTKLEIKR |  |  |  |  |  |  |  |  |  |  |  |  |  |  | no binding (tested: 1000 nM Fab) | no binding (tested: 1000 nM Fab) | 8610 fold | 0.00928 nM | 2.6e-05 s⁻¹ | 2.81e+06 M⁻¹ s⁻¹
4 | 19BLM (antibody, human IgG1, kappa, L234A L235A, V domains shown, IgG1 L234A L235A D265S/kappa; also called 82BLH; 55BMD) VH: EVQLVQSGAEVKKPGASVKVSCKASGYTFTSYDMHWVRQAPGQGLEWMGRIDPQSGGIKYAQKFQGRATLTVDTSTSTAYMELSRLRSDDTAVYYCARYDHGGYFDVWGQGTLVTVSS VL: DIQMTQSPSSLSASVGDRVTITCRASQDIYNYLNWYQQKPGKAVKLLIYYTSYLETGVPSRFSGSGSGTDYTLTISSLQPEDFATYFCQQGDTLPWTFGQGTKLEIKR | 0.179 µg/mL | 0.205 µg/mL | 0.152 µg/mL | 0.068 nM | 1.98e-06 s⁻¹ | 29200 M⁻¹ s⁻¹ | 13.3 | 0.178 nM | 0.014 s⁻¹ | 7.82e+07 M⁻¹ s⁻¹ | 5.5 | 3.43 nM | 0.0365 s⁻¹ | 1.07e+07 M⁻¹ s⁻¹ |  |  |  |  |  | 

Second part, the binder after the results:

Row | Average EC50 [1] | ELISA assay 2 EC50 [1] | ELISA assay #1 EC50 [1] | Kd [2] | koff [2] | kon [2] | Fab/mAb KD Ratio [3] | Kd [3] | koff [3] | kon [3] | Fab/mAb KD Ratio [4] | Kd [4] | koff [4] | kon [4] | binding result [5] | binding result [6] | Fold improvement in KD [7] | Kd [7] | koff [7] | kon [7] | Binder
5 | 0.076 µg/mL | 0.119 µg/mL | 0.0332 µg/mL | 0.00224 nM | 2.82e-05 s⁻¹ | 1.28e+07 M⁻¹ s⁻¹ | 0.3 | 0.047 nM | 0.000671 s⁻¹ | 1.45e+07 M⁻¹ s⁻¹ | 2.2 | 0.155 nM | 0.00131 s⁻¹ | 8.47e+06 M⁻¹ s⁻¹ |  |  |  |  |  |  | 07BLM (antibody, human IgG1, kappa, L234A L235A, V domains shown, IgG1 L234A L235A D265S/kappa; also called 70BLH; 43BMD) VH: EVQLVQSGAEVKKPGASVKVSCKASGYTFTSYDMHWVRQAPGQGLEWMGRIDPQSGGIRYAQKFQGRATLTVDTSTSTAYMELSRLRSDDTAVYYCARWDYGGYFDVWGQGTLVTVSS VL: DIQMTQSPSSLSASVGDRVTITCRASQDIYSYLNWYQQKPGKAVKLLIYYTSNLETGVPSRFSGSGSGTDYTLTISSLQPEDFATYFCQQGDTLPWTFGQGTKLEIKR
6 | 0.231 µg/mL | 0.243 µg/mL | 0.219 µg/mL | 0.00235 nM | 2.56e-05 s⁻¹ | 1.09e+07 M⁻¹ s⁻¹ | 4 | 0.0876 nM | 0.00196 s⁻¹ | 2.22e+07 M⁻¹ s⁻¹ | 3.2 | 0.331 nM | 0.00399 s⁻¹ | 1.21e+07 M⁻¹ s⁻¹ |  |  |  |  |  |  | 15BLM (antibody, human IgG1, kappa, L234A L235A, V domains shown, IgG1 L234A L235A D265S/kappa; also called 78BLH; 51BMD) VH: EVQLVQSGAEVKKPGASVKVSCKASGYTFTSYDMHWVRQAPGQGLEWMGRIDPQSGGIKYAQKFQGRATLTVDTSTSTAYMELSRLRSDDTAVYYCARWDYGGYFDVWGQGTLVTVSS VL: DIQMTQSPSSLSASVGDRVTITCRASQDIYNYLNWYQQKPGKAVKLLIYYTSRLETGVPSRFSGSGSGTDYTLTISSLQPEDFATYFCQQGDTLPWTFGQGTKLEIKR
7 | 0.083 µg/mL | 0.112 µg/mL | 0.0539 µg/mL | 0.00133 nM | 8.14e-06 s⁻¹ | 1.63e+07 M⁻¹ s⁻¹ | 1.7 | 0.026 nM | 0.000374 s⁻¹ | 1.47e+07 M⁻¹ s⁻¹ | 1.3 | 0.133 nM | 0.000892 s⁻¹ | 6.75e+06 M⁻¹ s⁻¹ |  |  |  |  |  |  | 11BLM (antibody, human IgG1, kappa, L234A L235A, V domains shown, IgG1 L234A L235A D265S/kappa; also called 74BLH; 47BMD) VH: EVQLVQSGAEVKKPGASVKVSCKASGYTFTSYDMHWVRQAPGQGLEWMGRIDPQSGGIRYAQKFQGRATLTVDTSTSTAYMELSRLRSDDTAVYYCARWDYGGYFDVWGQGTLVTVSS VL: DIQMTQSPSSLSASVGDRVTITCRASQDIYNYLNWYQQKPGKAVKLLIYYTSVLETGVPSRFSGSGSGTDYTLTISSLQPEDFATYFCQQGDTLPWTFGQGTKLEIKR
8 | 0.063 µg/mL | 0.096 µg/mL | 0.0295 µg/mL | 0.000367 nM | 7.71e-06 s⁻¹ | 2.04e+07 M⁻¹ s⁻¹ | 3.2 | 0.0111 nM | 0.000212 s⁻¹ | 1.91e+07 M⁻¹ s⁻¹ | 2.2 | 0.136 nM | 0.000936 s⁻¹ | 6.86e+06 M⁻¹ s⁻¹ |  |  |  |  |  |  | 12BLM (antibody, human IgG1, kappa, L234A L235A, V domains shown, IgG1 L234A L235A D265S/kappa; also called 75BLH; 48BMD) VH: EVQLVQSGAEVKKPGASVKVSCKASGYTFTSYDMHWVRQAPGQGLEWMGRIDPQSGGVKYAQKFQGRATLTVDTSTSTAYMELSRLRSDDTAVYYCARWDYGGYFDVWGQGTLVTVSS VL: DIQMTQSPSSLSASVGDRVTITCRASQDIYNYLNWYQQKPGKAVKLLIYYTSVLETGVPSRFSGSGSGTDYTLTISSLQPEDFATYFCQQGDELPWTFGQGTKLEIKR
